According to patent publication US20120316071A1 (published 2012):
Values belong to the binder of their own block, whether it stands above or below them.

Legend:
[1] = target: T1, rHuman Erythropoietin R/Fc Chimera, CF (R&D Systems Cat#963-ER) (human, UniProt P19235 25-250); test: ECL multispot (MSD) assay, spotted antigen; Fab 20.00 (head prints uM)
T1 construct: Bought recombinant protein; also called EPO R; EPO R/Fc; Fc part of the bought chimera not given
T1 sequence (looked up): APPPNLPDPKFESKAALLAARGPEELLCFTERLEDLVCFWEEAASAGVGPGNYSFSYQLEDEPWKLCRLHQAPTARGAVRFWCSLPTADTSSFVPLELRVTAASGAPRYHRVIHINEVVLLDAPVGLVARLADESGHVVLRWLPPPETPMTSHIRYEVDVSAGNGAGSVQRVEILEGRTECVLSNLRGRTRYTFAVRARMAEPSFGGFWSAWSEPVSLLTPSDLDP

[2] = target: T2, Recombinant Human DLL4 (R&D Systems Cat#1506-D4/CF) (human, UniProt Q9NR61 27-524); test: as above
T2 construct: Bought recombinant protein; also called delta-like protein 4

[3] = target: T3, rHuman ErbB2/Fc Chimera, CF (R&D Systems Cat#1129-ER) (human, UniProt P04626 23-652); test: as above
T3 construct: Bought recombinant protein; Fc part of the bought chimera not given

[4] = target: T4, rHuman EGF R/Fc Chimera, CF (R&D Systems Cat#344-ER) (human, UniProt P00533 25-645); test: as above
T4 construct: Bought recombinant protein; Fc part of the bought chimera not given

[5] = target: T5, rHuman HGF R/c-MET/Fc Chimera, CF (R&D Systems Cat#358-MT/CF) (human, UniProt P08581 25-932); test: as above
T5 construct: Bought recombinant protein; also called HGF R/Fc; Fc part of the bought chimera not given

[6] = target: T6, rHuman Notch-1/Fc Chimera, CF (R&D Systems Cat#3647-TK) (human, UniProt P46531 19-526); test: as above
T6 construct: Bought recombinant protein; Fc part of the bought chimera not given

[7] = target: T7, rHuman CD44/Fc Chimera, CF (R&D Systems Cat#3660-CD) (human, UniProt P16070 21-220); test: as above
T7 construct: Bought recombinant protein; Fc part of the bought chimera not given

[8] = target: T8, rHuman IGF-1 sR, CF (R&D Systems Cat#391-GR) (human, UniProt P08069 31-932); test: as above
T8 construct: Bought soluble receptor; The column head prints only 'IGF-1'; also called insulin-like growth factor-1 soluble receptor

[9] = target: T9, rHuman P-Cadherin/Fc Chimera, CF (R&D Systems Cat#861-PC) (human, UniProt P22223 108-654); test: as above
T9 construct: Bought recombinant protein; Fc part of the bought chimera not given

[10] = target: T10, Recombinant Human DLL4 (R&D Systems Cat#1506-D4/CF) (human, UniProt Q9NR61 27-524); test: MSD multispot ECL, antigen spotted, Fab 595.8 nM; blank spot 285
T10 construct: Bought recombinant protein; also called rHuman DLL4; delta-like protein 4

[11] = target: T11, rHuman EGF R/Fc Chimera, CF (R&D Systems Cat#344-ER) (human, UniProt P00533 25-645); test: as above
T11 construct: Bought reagent; also called epidermal growth factor receptor

[12] = target: T12, rHuman HGF R/c-MET/Fc Chimera, CF (R&D Systems Cat#358-MT/CF) (human, UniProt P08581 25-932); test: as above
T12 construct: Bought reagent; also called HGF R/Fc; hepatocyte growth factor receptor

[13] = target: T13, rHuman Notch-1/Fc Chimera, CF (R&D Systems Cat#3647-TK) (human, UniProt P46531 19-526); test: as above
T13 construct: Bought reagent

[14] = target: T14, rHuman CD44/Fc Chimera, CF (R&D Systems Cat#3660-CD) (human, UniProt P16070 21-220); test: as above
T14 construct: Bought reagent

[15] = target: T15, rHuman Erythropoietin R/Fc Chimera, CF (R&D Systems Cat#963-ER) (human, UniProt P19235 25-250); test: as above
T15 construct: Bought reagent; also called EPO R/Fc; Epo R
T15 sequence (looked up): T1 sequence (looked up)

[16] = target: T16, rHuman Erythropoietin R/Fc Chimera, CF (R&D Systems Cat#963-ER) (human, UniProt P19235 25-250); test: MSD Multispot ECL, antigen spotted on plate, Fab 2.0 nM; blank spot 316
T16 construct: Bought reagent; also called EPO R/Fc; EPO R; Fc part of the bought chimera not given
T16 sequence (looked up): T1 sequence (looked up)

[17] = target: T17, rHuman HGF R/c-MET/Fc Chimera, CF (R&D Systems Cat#358-MT/CF) (human, UniProt P08581 25-932); test: as above
T17 construct: Bought reagent; also called HGF R/Fc; hepatocyte growth factor receptor; Fc part of the bought chimera not given

[18] = target: T18, rHuman Notch-1/Fc Chimera, CF (R&D Systems Cat#3647-TK) (human, UniProt P46531 19-526); test: as above
T18 construct: Bought reagent; Fc part of the bought chimera not given

[19] = target: T19, rHuman IGF-1 sR, (IGF-1 sR), CF (R&D Systems Cat#391-GR) (human, UniProt P08069 31-932); test: as above
T19 construct: Bought soluble receptor; also called insulin-like growth factor-1 soluble receptor

ECL signal/noise ratio [1]: 1.1 | ECL signal/noise ratio [2]: 157 | ECL signal/noise ratio [3]: 1.2 | ECL signal/noise ratio [4]: 1.1 | ECL signal/noise ratio [5]: 0.9 | ECL signal/noise ratio [6]: 1.2 | ECL signal/noise ratio [7]: 1.1 | ECL signal/noise ratio [8]: 1.1 | ECL signal/noise ratio [9]: 1.1
B1: Fab VH5-51_IGHD5-18*01>3_IGHJ4*01 G100K/G104T & V3-4_IGLJ1*01 (Fab, V domains shown)
VH: EVQLVQSGAEVKKPGESLKISCKGSGYSFTSYWIGWVRQMPGKGLEWMGIIYPGDSDTRYSPSFQGQVTISADKSISTAYLQWSSLKASDTAMYYCARRKYSYTYDYFDYWGQGTLVTVSS
VL: QTVVTQEPSFSVSPGGTVTLTCGLSSGSVSTSYYPSWYQQTPGQAPRTLIYSTNTRSSGVPDRFSGSILGNKAALTITGAQADDESDYYCVLYMGSGISYVFGTGTKVTVL
notes: Tested as a Fab; The constant parts are the same as for the parent Fab (CH1 with His6/Flag tags, lambda CL); also called KT double mutant; H:KT

ECL signal [10]: 17200 ECL signal | ECL signal [11]: 403 ECL signal | ECL signal [12]: 353 ECL signal | ECL signal [13]: 306 ECL signal | ECL signal [14]: 372 ECL signal | ECL signal [15]: 378 ECL signal
B2: Fab VH1-46_IGHD6-6*01_IGHJ1*01 & L6_IGKJ1*01 (Fab, V domains shown)
VH: QVQLVQSGAEVKKPGASVKVSCKASGYTFTSYYMHWVRQAPGQGLEWMGIINPSGGSTSYAQKFQGRVTMTRDTSTSTVYMELSSLRSEDTAVYYCAREEYSSSSAEYFQHWGQGTLVTVSS
VL: not shown
notes: Only variable domains are tied to the molecule; Tested as a Fab made in E. coli: heavy chain from Plasmid A (CH1 constant region, His6 and Flag tags), kappa light chain from Plasmid C (kappa CL); also called parent Hit Fab against DLL4; VH1-46_IGHD6-6*01_IGHJ1*01 & L6_IGKJ1*01 (parental)

ECL signal [16]: 433 | ECL signal [17]: 356 | ECL signal [18]: 539 | ECL signal [19]: 367
B3: Fab VH1-8_IGHD2-2*01_IGHJ6*01 & L12_IGKJ1*01 (Fab, V domains shown)
VH: QVQLVQSGAEVKKPGASVKVSCKASGYTFTSYDINWVRQATGQGLEWMGWMNPNSGNTGYAQKFQGRVTMTRNTSISTAYMELSSLRSEDTAVYYCARGGYCSSTSCYADYYYYYGMDVWGQGTTVTVSS
VL: not shown
